B1: ZBED2 (parent)
chain: RAGHHPNQYATCRLCGRQVSRGPG

Variants of: B1
Assay: protein stability index of a GFP-peptide fusion (GPS, HEK-293T) (PSI 1-6); higher = more stable
Conditions: c terminus: a fixed tail appended
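Further: lentivirally expressed fusions sorted by FACS into six bins by GFP to DsRed ratio, PSI derived from sequencing read proportions per bin multiplied by bin number.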

Q: For RAGHHPNQYATCRLTGRQVSRGPG [C15T], which protein stability index is on record?
A: 3.44

Q: For RAGHHPNQYATCRLYGRQVSRGPG [C15Y], which protein stability index is on record?
A: 1.42

Q: For RAGHHPNQYATCRLVGRQVSRGPG [C15V], which protein stability index is on record?
A: 2.2

Q: For RAGHHPNQYATCRLAGRQVSRGPG [C15A], which protein stability index is on record?
A: 1.4

Q: With RAGHHPNQYATCRLGGRQVSRGPG [C15G] as the variant, how does the protein stability index read?
A: 2.6

Q: With RAGHHPNQYATCRLIGRQVSRGPG [C15I] as the variant, how does the protein stability index read?
A: 1.95

Q: With RAGHHPNQYATCRLKGRQVSRGPG [C15K] as the variant, how does the protein stability index read?
A: 3.16

Q: Which protein stability index does the source give for RAGHHPNQYATCRLLGRQVSRGPG [C15L] here?
A: 1.85

Q: For RAGHHPNQYATCRLHGRQVSRGPG [C15H], which protein stability index is on record?
A: 1.93

Q: With RAGHHPNQYATCRLFGRQVSRGPG [C15F] as the variant, how does the protein stability index read?
A: 1.7

Q: Which protein stability index does the source give for RAGHHPNQYATCRLSGRQVSRGPG [C15S] here?
A: 2.34

Q: Which protein stability index does the source give for RAGHHPNQYATCRLNGRQVSRGPG [C15N] here?
A: 2.19

Q: Which protein stability index does the source give for RAGHHPNQYATCRLPGRQVSRGPG [C15P] here?
A: 3.18

Q: With RAGHHPNQYATCRLDGRQVSRGPG [C15D] as the variant, how does the protein stability index read?
A: 3.55

Q: Which protein stability index does the source give for RAGHHPNQYATCRLRGRQVSRGPG [C15R] here?
A: 2.83

Q: With RAGHHPNQYASCRLCGRQVSRGPG [T11S] as the variant, how does the protein stability index read?
A: 1.5

Q: Which protein stability index does the source give for RAGHHPNQYAYCRLCGRQVSRGPG [T11Y] here?
A: 3.09

Q: For RAGHHPNQYARCRLCGRQVSRGPG [T11R], which protein stability index is on record?
A: 2.01

Q: With RAGHHPNQYAFCRLCGRQVSRGPG [T11F] as the variant, how does the protein stability index read?
A: 3.34

Q: For RAGHHPNQYANCRLCGRQVSRGPG [T11N], which protein stability index is on record?
A: 1.97

Q: Which protein stability index does the source give for RAGHHPNQYAECRLCGRQVSRGPG [T11E] here?
A: 2.84

Q: Which protein stability index does the source give for RAGHHPNQYALCRLCGRQVSRGPG [T11L] here?
A: 1.7

Q: With RAGHHPNQYAMCRLCGRQVSRGPG [T11M] as the variant, how does the protein stability index read?
A: 3.7

Q: For RAGHHPNQYAICRLCGRQVSRGPG [T11I], which protein stability index is on record?
A: 2.27

Q: For RAGHHPNQYAKCRLCGRQVSRGPG [T11K], which protein stability index is on record?
A: 2.56

Q: For RAGHHPNQNATCRLCGRQVSRGPG [Y9N], which protein stability index is on record?
A: 2.33

Q: For RAGHHPNQLATCRLCGRQVSRGPG [Y9L], which protein stability index is on record?
A: 1.6

Q: With RAGHHPNQIATCRLCGRQVSRGPG [Y9I] as the variant, how does the protein stability index read?
A: 2.06

Q: For RAGHHPNQSATCRLCGRQVSRGPG [Y9S], which protein stability index is on record?
A: 2.72

Q: With RAGHHPNQHATCRLCGRQVSRGPG [Y9H] as the variant, how does the protein stability index read?
A: 2.28

Q: For RAGHHPNQFATCRLCGRQVSRGPG [Y9F], which protein stability index is on record?
A: 1.67

Q: With RAGHHPNQAATCRLCGRQVSRGPG [Y9A] as the variant, how does the protein stability index read?
A: 2.33

Q: Which protein stability index does the source give for RAGHHPNQPATCRLCGRQVSRGPG [Y9P] here?
A: 3.34

Q: With RAGHHPNQYATCRLCKRQVSRGPG [G16K] as the variant, how does the protein stability index read?
A: 1.51

Q: For RAGHHPNQYATCRLCWRQVSRGPG [G16W], which protein stability index is on record?
A: 3.77

Q: For RAGHHPNQYATCRLCDRQVSRGPG [G16D], which protein stability index is on record?
A: 1.78

Q: For RAGHHPNQYATCRLCYRQVSRGPG [G16Y], which protein stability index is on record?
A: 3.58

Q: For RAGHHPNQYATCRLCHRQVSRGPG [G16H], which protein stability index is on record?
A: 1.9

Q: For RAGHHPNQYATCRLCTRQVSRGPG [G16T], which protein stability index is on record?
A: 1.41

Q: With RAGHHPNQYATCRLCSRQVSRGPG [G16S] as the variant, how does the protein stability index read?
A: 2.2

Q: With RAGHHPNQYATCRLCCRQVSRGPG [G16C] as the variant, how does the protein stability index read?
A: 1.25

Q: Which protein stability index does the source give for RAGHHPNQYATCRLCQRQVSRGPG [G16Q] here?
A: 1.81

Q: For RAGHHPNQYATCRLCERQVSRGPG [G16E], which protein stability index is on record?
A: 2.46

Q: For RAGHHPNQYATCRLCPRQVSRGPG [G16P], which protein stability index is on record?
A: 2.41

Q: For RAGHHPNQYATCRLCNRQVSRGPG [G16N], which protein stability index is on record?
A: 2.51

Q: With RAGHFPNQYATCRLCGRQVSRGPG [H5F] as the variant, how does the protein stability index read?
A: 1.89

Q: With RAGHDPNQYATCRLCGRQVSRGPG [H5D] as the variant, how does the protein stability index read?
A: 3.27

Q: With RAGHKPNQYATCRLCGRQVSRGPG [H5K] as the variant, how does the protein stability index read?
A: 2.51

Q: With RAGHIPNQYATCRLCGRQVSRGPG [H5I] as the variant, how does the protein stability index read?
A: 2.27

Q: Which protein stability index does the source give for RAGHTPNQYATCRLCGRQVSRGPG [H5T] here?
A: 1.37

Q: For RAGHGPNQYATCRLCGRQVSRGPG [H5G], which protein stability index is on record?
A: 1.68

Q: Which protein stability index does the source give for RAGHAPNQYATCRLCGRQVSRGPG [H5A] here?
A: 2.48

Q: For RAGHYPNQYATCRLCGRQVSRGPG [H5Y], which protein stability index is on record?
A: 2.37

Q: With RAGHEPNQYATCRLCGRQVSRGPG [H5E] as the variant, how does the protein stability index read?
A: 3.69

Q: Which protein stability index does the source give for RAGHCPNQYATCRLCGRQVSRGPG [H5C] here?
A: 1.93

Q: With RAGHMPNQYATCRLCGRQVSRGPG [H5M] as the variant, how does the protein stability index read?
A: 2.41

Q: With RAGHQPNQYATCRLCGRQVSRGPG [H5Q] as the variant, how does the protein stability index read?
A: 2.16

Q: With RAGHNPNQYATCRLCGRQVSRGPG [H5N] as the variant, how does the protein stability index read?
A: 2.5

Q: For RAGHLPNQYATCRLCGRQVSRGPG [H5L], which protein stability index is on record?
A: 1.86

Q: Which protein stability index does the source give for RAGDHPNQYATCRLCGRQVSRGPG [H4D] here?
A: 2.09

Q: Which protein stability index does the source give for RAGEHPNQYATCRLCGRQVSRGPG [H4E] here?
A: 2.16

Q: With RAGIHPNQYATCRLCGRQVSRGPG [H4I] as the variant, how does the protein stability index read?
A: 3.21

Q: With RAGYHPNQYATCRLCGRQVSRGPG [H4Y] as the variant, how does the protein stability index read?
A: 1.24

Q: For RAGCHPNQYATCRLCGRQVSRGPG [H4C], which protein stability index is on record?
A: 1.84

Q: For RAGRHPNQYATCRLCGRQVSRGPG [H4R], which protein stability index is on record?
A: 1.12

Q: With RAGGHPNQYATCRLCGRQVSRGPG [H4G] as the variant, how does the protein stability index read?
A: 2.21

Q: Which protein stability index does the source give for RAGLHPNQYATCRLCGRQVSRGPG [H4L] here?
A: 1.78

Q: Which protein stability index does the source give for RAGNHPNQYATCRLCGRQVSRGPG [H4N] here?
A: 3.52

Q: Which protein stability index does the source give for RAGTHPNQYATCRLCGRQVSRGPG [H4T] here?
A: 2.78

Q: Which protein stability index does the source give for RAGVHPNQYATCRLCGRQVSRGPG [H4V] here?
A: 2.31

Q: For RAGKHPNQYATCRLCGRQVSRGPG [H4K], which protein stability index is on record?
A: 1.56

Q: With RAGHHPNQYATCRLCGDQVSRGPG [R17D] as the variant, how does the protein stability index read?
A: 2.96

Q: With RAGHHPNQYATCRLCGAQVSRGPG [R17A] as the variant, how does the protein stability index read?
A: 1.69

Q: Which protein stability index does the source give for RAGHHPNQYATCRLCGQQVSRGPG [R17Q] here?
A: 1.3

Q: For RAGHHPNQYATCRLCGNQVSRGPG [R17N], which protein stability index is on record?
A: 1.31

Q: For RAGHHPNQYATCRLCGCQVSRGPG [R17C], which protein stability index is on record?
A: 1.91

Q: Which protein stability index does the source give for RAGHHPNQYATCRLCGEQVSRGPG [R17E] here?
A: 1.93

Q: For RAGHHPNQYATCRLCGIQVSRGPG [R17I], which protein stability index is on record?
A: 1.86

Q: Which protein stability index does the source give for RAGHHPNQYATCRLCGKQVSRGPG [R17K] here?
A: 3.01

Q: With RAGHHPNQYATCRLCGSQVSRGPG [R17S] as the variant, how does the protein stability index read?
A: 1.79

Q: For RAGHHPNQYATCRLCGHQVSRGPG [R17H], which protein stability index is on record?
A: 1.29

Q: With RAGHHPNQYATCRLCGTQVSRGPG [R17T] as the variant, how does the protein stability index read?
A: 2.26

Q: Which protein stability index does the source give for RAGHHPNQYATCRLCGFQVSRGPG [R17F] here?
A: 1.96

Q: For RAGHHPNQYATCRLCGLQVSRGPG [R17L], which protein stability index is on record?
A: 2.64

Q: For RAGHHPNQYATCRLCGVQVSRGPG [R17V], which protein stability index is on record?
A: 1.49

Q: Which protein stability index does the source give for RAGHHYNQYATCRLCGRQVSRGPG [P6Y] here?
A: 1.02

Q: With RAGHHINQYATCRLCGRQVSRGPG [P6I] as the variant, how does the protein stability index read?
A: 1.45

Q: Which protein stability index does the source give for RAGHHNNQYATCRLCGRQVSRGPG [P6N] here?
A: 1.72

Q: For RAGHHGNQYATCRLCGRQVSRGPG [P6G], which protein stability index is on record?
A: 2.54

Q: For RAGHHDNQYATCRLCGRQVSRGPG [P6D], which protein stability index is on record?
A: 2.02

Q: For RAGHHRNQYATCRLCGRQVSRGPG [P6R], which protein stability index is on record?
A: 1.83

Q: With RAGHHHNQYATCRLCGRQVSRGPG [P6H] as the variant, how does the protein stability index read?
A: 2.31

Q: Which protein stability index does the source give for RAGHHFNQYATCRLCGRQVSRGPG [P6F] here?
A: 1.33

Q: For RAGHHSNQYATCRLCGRQVSRGPG [P6S], which protein stability index is on record?
A: 1.72

Reference: the supplement of paper PMC10567573
